Assay results as given in paper PMC5383425, “Differential CLE peptide perception by plant receptors implicated from structural and functional analyses of TDIF-TDR interactions” (PLoS ONE, 2017).
Numbering of substitutions follows the chain as printed. Square brackets hold non-standard residues; d marks the D form. Ends that are not written are not given here. Hyp = O=C(O)[C@@H]1C[C@@H](O)CN1

Key:
Assay in all cases: ITC; 0.5–1 mM peptide titrated into 10–40 μM ecdTDR; 25°C; 10 mM sodium citrate, 100 mM NaCl, pH 5.5; fitted to one set of binding sites; MicroCal Auto-iTC200
Settings in all cases: both partners purified
[1] = target: T1, ecdTDR mutant with all five N-terminal anchoring site-binding residues replaced by alanine (Arabidopsis thaliana, UniProt Q9FII5 30-642)
T1 chain: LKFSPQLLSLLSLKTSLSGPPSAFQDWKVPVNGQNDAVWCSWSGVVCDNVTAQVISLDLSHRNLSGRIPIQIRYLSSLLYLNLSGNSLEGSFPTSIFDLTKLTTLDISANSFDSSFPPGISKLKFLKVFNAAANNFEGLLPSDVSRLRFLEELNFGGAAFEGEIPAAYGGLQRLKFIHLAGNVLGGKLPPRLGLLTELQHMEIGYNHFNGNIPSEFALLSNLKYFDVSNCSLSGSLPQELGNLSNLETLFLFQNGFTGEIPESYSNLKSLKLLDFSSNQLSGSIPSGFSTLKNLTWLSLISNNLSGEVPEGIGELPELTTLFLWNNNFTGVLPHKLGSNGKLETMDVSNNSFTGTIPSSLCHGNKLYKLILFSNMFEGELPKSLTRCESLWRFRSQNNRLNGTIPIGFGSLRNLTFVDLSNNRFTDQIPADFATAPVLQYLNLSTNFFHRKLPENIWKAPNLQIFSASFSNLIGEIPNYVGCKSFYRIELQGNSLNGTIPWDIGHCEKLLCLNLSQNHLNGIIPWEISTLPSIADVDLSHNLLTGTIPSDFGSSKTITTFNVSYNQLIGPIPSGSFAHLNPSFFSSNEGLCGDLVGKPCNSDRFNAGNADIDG

ecdTDR Y188A mutant = target: T2, ecdTDR Y188A mutant (Arabidopsis thaliana, UniProt Q9FII5 30-642, Y188A)
T2 construct: TDR/PXY of A. thaliana, extracellular domain, residues 30-642; source: High Five insect cells (baculovirus), secreted, purified as the wild type (Ni-NTA, size-exclusion chromatography)
T2 sequence (looked up): T1 chain with A109R, A132F, A133S, A158S

[2] = target: T3, TDR-R421A/R423A double mutant (ecdTDR) (Arabidopsis thaliana, UniProt Q9FII5 30-642, R421A | R423A)
T3 construct: TDR/PXY of A. thaliana, extracellular domain, residues 30-642; source: High Five insect cells (baculovirus), secreted, purified as the wild type (Ni-NTA, size-exclusion chromatography)
T3 sequence (looked up): T1 chain with A109R, A132F, A133S, A158S, A159Y, R392A, R394A

B1: Tracheary Element Differentiation Inhibitory Factor (TDIF) peptide (peptide)
peptide: HEV[Hyp]SG[Hyp]NPISN
notes: TDIF, the 12-residue CLE peptide processed from CLE41 and CLE44 of A. thaliana; printed as HEV(Hyp)SG(Hyp)NPISN; numbers count on: the 12-residue peptide; CLE44 encodes the same peptide; also called wild type TDIF; wtTDIF; source: synthetic peptide (peptide 2.0)
fold decrease in affinity against wild-type ecdTDR [1]: 31.4 fold | binding result (ecdTDR Y188A mutant): binds | fold lower affinity than wild-type ecdTDR [2]: 3 fold
